Results from paper PMC6250738.
One block for each substance: values may come before it.

Key:
Test in all cases: SEC; Superdex 200 10/30 GL, PBS, native conditions; MW from elution volume against protein standards
[1] = target: NanoLuc luciferase-TriggerTrimer-galectin-3 trimeric nanoassembly (deep sea shrimp | not stated | human)
[2] = target: superfolder green fluorescent protein-TriggerTrimer-galectin-3 trimeric nanoassembly
[3] = target: chondroitinase ABC I-TriggerTrimer-galectin-3 trimeric nanoassembly

stoichiometry N [1]: 3
Substance: NanoLuc luciferase-TriggerTrimer-galectin-3 trimeric nanoassembly

stoichiometry N [2]: 3
Substance: superfolder green fluorescent protein-TriggerTrimer-galectin-3 trimeric nanoassembly

Substance: chondroitinase ABC I-TriggerTrimer-galectin-3 trimeric nanoassembly
stoichiometry N [3]: 3
